From patent publication US20260234121A1, “DERIVATIVES, IMMUNOGENS, AND ANTIBODIES AND USE OF THE SAME IN DETECTION OF ECSTASY-CLASS COMPOUNDS” (Siemens Healthcare Diagnostics Inc., priority 2023, published 2026)

Tests used:
[1] = Prototype EMIT ecstasy assay, cross-reactivity with amphetamine; type: biochemical; details: conjugate Compound 58; negative urine pool
[2] = Prototype EMIT ecstasy assay, cross-reactivity with methamphetamine; type: biochemical; details: conjugate Compound 58; negative urine pool
E1-OVA (55) = assay: ELISA binding of hybridoma supernatant to E1-OVA (55) coated plates, without inhibitor; details: hybridoma supernatant mixed with PBS alone
Method: All ELISA steps were performed at rt. Wells of a Nunc Maxi-Sorp™ flat-bottom ELISA plates (ThermoFisher Scientific, Waltham, MA) were coated with 50 μL E1-OVA (55), E2-OVA (65), and E3-OVA (72) at a concentration of 1 μg/mL in PBS for 1 h. The plates were flicked dried and remaining binding sites were blocked with 200 μL per well of blocking solution (0.5% casein, 0.05% (v/v) Tween 20 in PBS) for one hour. Plates were washed six times with MilliQ water containing 0.05% (v/v) Tween 20 on Biotek 405 LS plate washer equipped with microplate Biostacker 3 (Biotek, Winooski, VT). 50 μL of serially diluted antibody samples (serial dilutions of serum, hybridoma supernatant, or monoclonal antibodies in PBS) were added to each well and incubated for one hour. Unbound antibodies were removed by washing as described above, and 50 μL of secondary goat anti-rabbit IgG HRP or goat anti-mouse IgG (Fc)-HRP conjugate (ThermoFisher Scientific, USA), diluted 1:3,000 in the blocking solution was added to each well for detection bound rabbit or mouse antibody, respectively. Plates were incubated for one hour, washed and 100 μL of TMB substrate (Moss, Pasadena, MD) was added for 15 min to determine bound peroxidase. Optical density (OD) of the samples at 650 nm was measured using an ELISA plate reader (Molecular Devices LLC., San Jose, CA). The titer of each serum sample was designated as the maximum dilution that yielded at least twice the absorbance of the same dilution of the nonimmune control serum.
The supernatants were screened in a competitive ELISA for the presence of anti-ecstasy compound monoclonal antibodies (mAbs) as follows. 25 μL of the hybridoma supernatant was mixed with equal volume of PBS alone or containing 20 μg/mL inhibitor (MDA or MDMA) were incubated for 1 h in the wells of E1-OVA (55) coated ELISA plates. The plates were washed and the presence of bound mAbs were detected using goat anti-mouse IgG (Fc)-HRP conjugate and TMB substrate as described above. The level of inhibition of mAb/E1-OVA (55) binding in the presence of the inhibitor was estimated using a Percent (%) Inhibition calculated by the below formula:
[formula] • where “OD650 nm w/o Inhibitor” is the binding response of the antibody sample diluted in PBS alone (with no inhibitor), and the “OD650 nm with Inhibitor” is the binding response of the same antibody sample in the presence of 10 μg/mL of inhibitor (i.e., MDA or MDMA). […]

Row | Molecule | Concentrations (μg/mL) of Structurally Related Compounds Equivalent to 500 ng/mL MDMA Cutoffs, (+/−) Amph [1] | Concentrations (μg/mL) of Structurally Related Compounds Equivalent to 500 ng/mL MDMA Cutoffs, (+/−) mAmph [2] | E1-OVA (55) Binding, OD650 nm w/o inhib (E1-OVA (55))
1 | 178K 3C8 mAb: mouse monoclonal antibody raised against E1-KLH (56); IgG1, κ; heavy chain SEQ ID NO 88, light chain SEQ ID NO 112 (antibody) heavy: MNFGLSLIFLVLILKGVQCEVQLVESGGDLVKPGESLKLACAASGFTFSRDVMSWVRQTPDKRLEWVATISSNGIYIYYTDSVKGRFTISRDNAKNTLYLQLSSLRSEDTAVYYCSRGNNLDSWGQGTTLTVSSAKTTPPSVYPLAPGSAAQTNSMVTLGCLVKGYFPEPVTVTWNSGSLSSGVHTFPAVLQSDLYTLSSSVTVPSSTWPSETVTCNVAHPASSTKVDKKIVPRDCGCKPCICTVPEVSSVFIFPPKPKDVLTITLTPKVTCVVVDISKDDPEVQFSWFVDDVEVHTAQTQPREEQFNSTFRSVSELPIMHQDWLNGKEFKCRVNSAAFPAPIEKTISKTKGRPKAPQVYTIPPPKEQMAKDKVSLTCMITDFFPEDITVEWQWNGQPAENYKNTQPIMDTDGSYFIYSKLNVQKSNWEAGNTFTCSVLHEGLHNHHTEKSLSHSPGK light: MRFSAQLLGLLVLWIPGSTADIVMTQAAFSNPVTLGTSASISCRSSKSLLHRNGITYLYWYLQKPGQSPQLLIYQMSNLASGVSDRFSSSGSGTDFTLRISRVEAEDVGVYFCGQDLELPYSFGGGTKLEIKRADAAPTVSIFPPSSEQLTSGGASVVCFLNNFYPKDINVKWKIDGSERQNGVLNSWTDQDSKDSTYSMSSTLTLTKDEYERHNSYTCEATHKTSTSPIVKSFNRNEC | 30 µg/mL | 50 µg/mL | 2.389 OD650 nm
2 | 178K 5B11 mAb: mouse monoclonal antibody raised against E1-KLH (56); IgG1, κ; heavy chain SEQ ID NO 90, light chain SEQ ID NO 114 (antibody) heavy: MNFGLSLIFLALILKGVQCEVQLVESGGDLVKPGGSLKLSCAASGFSFSAYVMSWVRQTPDKRLEWVATISRGGSYIYYPDSVKGRFTISRDDARDTLYLQMTSLKSEDTAVYYCSGGNNLDYWGQGTALTVSSAKTTPPSVYPLAPGSAAQTNSMVTLGCLVKGYFPEPVTVTWNSGSLSSGVHTFPAVLQSDLYTLSSSVTVPSSTWPSETVTCNVAHPASSTKVDKKIVPRDCGCKPCICTVPEVSSVFIFPPKPKDVLTITLTPKVTCVVVDISKDDPEVQFSWFVDDVEVHTAQTQPREEQFNSTFRSVSELPIMHQDWLNGKEFKCRVNSAAFPAPIEKTISKTKGRPKAPQVYTIPPPKEQMAKDKVSLTCMITDFFPEDITVEWQWNGQPAENYKNTQPIMDTDGSYFIYSKLNVQKSNWEAGNTFTCSVLHEGLHNHHTEKSLSHSPGK light: MRFSAQLLGLLVLWIPGSTADIVMTQAAFSNPVTLGTSASISCRSSKSLLQINGITYLYWYLQKPGQSPQLLIYQMSNLASGVPDRFSSSGSGTDFTLRISRVEAEDVGVYYCGQDLELPYTFGGGTKLEIKRADAAPTVSIFPPSSEQLTSGGASVVCFLNNFYPKDINVKWKIDGSERQNGVLNSWTDQDSKDSTYSMSSTLTLTKDEYERHNSYTCEATHKTSTSPIVKSFNRNEC | 25 to 30 µg/mL | 30 to 50 µg/mL | 2.893 OD650 nm
